Results on 14 sequences are retold here after the DeepSol protein solubility set.

This data set is described as follows: soluble on expression in E. coli; label from the status in PepcDB or PDB records.
In the case of “MSPNHVDHLVLPVAQIDIATARLANLGFTVAPLAVHPFGTANACVFLADGTYLEPLAVNDPAKYGESANRGDVFTGRDRAFRESCGPEGFSALVARSGDAFVDHERFVAAGLSAGDLFEFSRPVQMPDGSRSEAAFRLAFAASGAAADFFLFGCQRLKALPGDRTELERHANAVTGLFEIVLFSGGDAKAARLIETVFGCKSAMSPGGDMVFATGNARIRLTEKPAVADLDLNTSNRGDGGLRGAGIVFSVTDLAVTAAVLAANGVSSMEAGGRLVVPAAPGQGVAFAFEEI”, the “soluble on expression in E. coli” value was “not soluble”.

Consider “MSPVAAMKRKNGVALWRQIADRIRGEIAAGDHDETGMLPPEMTLAEKFGVNRHTVRSAIAALASEGILEPMQGRGTMIARKERLSFPISLRTRFTAGIGDQVKEMEALLLSHTTEPASADLAARLQLPSGAPLVRLETLRKADTRPVSRSTTWFPADRFAGIGEAYRKSGSITAAFKALGVADYVRISTVISAIHADTQDLADLELSPGAILLVTQALNADMDGVPVQYAVSRFSADTVEFTVEN”, for which the “soluble on expression in E. coli” value is “not soluble”.

Regarding “MSQANLSETLFKPRFKHPETSTLVRRFSAGKPQAMQSALSGNHVDHWYRLINRLMWIWRGVTPQEILDVQARIVMSEAERTDPELFDTVIGYRGGNWIFEWAKEAMQWQQKAGQEADPLLSGRHWLHASNLYSIAAYPHIKGDELAEQAQALANRAYEEAAQRLPGSLRELEFTIPGGSPITGFLHMPKGEGPFPTVLMCGGLDSLQTDYYNLYENYFSPLGIAMLTIDMPSIGFSSKWTLNQDTSLLHQHALRHLENVPWIDHTRVAAFGFRFGANIAVRLGYLEPQRLKAVACLGPVVHGLLVDPLHQGRVPEMYLDVLASRLGMHDASDEALRVELNRYSLKTQGLLGRRCPTPMLSGFWKDDPFSPEEESRLITSSSADGKLLEIPFNPVYRNFDHALRQIARWINHRFG”, the “soluble on expression in E. coli” value is given as “not soluble”.

With “MSQSKGKKRNPGLKIPKEAFEQPQTSSTPPRDLDSKACISIGNQNFEVKADDLEPIMELGRGAYGVVEKMRHVPSGQIMAVKRIRATVNSQEQKRLLMDLDISMRTVDCPFTVTFYGALFREGDVWICMELMDTSLDKFYKQVIDKGQTIPEDILGKIAVSIVKALEHLHSKLSVIHRDVKPSNVLINALGQVKMCDFGISGYLVDSVAKTIDAGCKPYMAPERINPELNQKGYSVKSDIWSLGITMIELAILRFPYDSWGTPFQQLKQVVEEPSPQLPADKFSAEFVDFTSQCLKKNSKERPTYPELMQHPFFTLHESKGTDVASFVKLILGDLEHHHHHH”, the “soluble on expression in E. coli” value is “soluble”.

“MSQVQSGILPEHCRAAIWIEANVKGEVDALRAASKTFADKLATFEAKFPDAHLGAVVAFGNNTWRALSGGVGAEELKDFPGYGKGLAPTTQFDVLIHILSLRHDVNFSVAQAAMEAFGDCIEVKEEIHGFRWVEERDLSGFVDGTENPAGEETRREVAVIKDGVDAGGSYVFVQRWEHNLKQLNRMSVHDQEMVIGRTKEANEEIDGDERPETSHLTRVDLKEDGKGLKIVRQSLPYGTASGTHGLYFCAYCARLHNIEQQLLSMFGDTDGKRDAMLRFTKPVTGGYYFAPSLDKLMAL”: the “soluble on expression in E. coli” value is given as “soluble”.

For the sequence “MSRDRPNKIKLPHRPGYTTYLQTGDLTSTDGEEGVYSLKLITGYTREEPEILDDVLDPSGGSSSSQRSNDPLLPASTNHPEIFDDVLDPSGGSSSSQRSNDPLLPASTFKLSCVDCKKQYNVSKSMKSQARKRKIRQDMEAEDDMLDGTGLHRMALVNVNTTMPQEAKALEELSKKLVISATLTGYDSVPINTPSKSPQVLYFQVKTHAEFDLVQEKMDKNFISQLEIESLVKSNEPFLFPYGRRRHVFTSILLATYLSLCSDEANNIDDWKDLLRNNAIIKKAVEHSDTMQKMKKYLSVDGRTMLNFYKETL”, the “soluble on expression in E. coli” value is on record as “not soluble”.

As for “MSREDELLEKLDECENATAFLQVSNKIINLKLKALLPSVFVQDDLVKEYAVDPLLREDGPLVTTDVVSKLMFAMGKISLQTYADIGLYDQVLEYVVTQPEKIAFTDDVIYDFIKNQAVLSSQQDCFYLESINQLKFSSFESFSQMRYESLIKTVLKLSCEMLIERIEEEINQ”, the “soluble on expression in E. coli” value was “soluble”.

Take “MSRFSITYKHDFYGGVEGEVTGGSALLCCPQEDIKSFLSEPVYSRLCASAWALTIECPSDPRTPSGTPGPLGTVPWRWGSLGMGGPLLPTAPTPRERERRGGQPAQRWSAEEGQEGSADGEAEATQELILAVVQEGAEGQCQGQGRKLLLQRGAHDPVTVHRAFKKEVGLGQVQLIPKGGTGVLHPGAGLKLHTHLQLVTGFVVIRRMHACLAQRYCSQPVVQCVFPS”: the “soluble on expression in E. coli” value is on record as “not soluble”.

Consider “MSRGLLEACIEFIRETPAGDALRIVAYEFTFKRILLELKAALERGVDVRIVYHATTANEKAIADAKLPENSKGVQILFKRTRPQTPHNKFIVRLKKGKTPVSVWTGSTNFTPSGFLGQTNVGHKVTDGDIAKIYLQLWEGLKADPDDFDATQLEHHHHHH”, for which the “soluble on expression in E. coli” value is listed as “not soluble”.

As for “MSRGQIIHSGHFMCSNPHDDLVQDEDEEDVEVDVVEDDDKSMEASSSVHHKNKALDEKPVTFYKFGVGKTQSIAIDVSLNKLNKCIKVAYNKMTTPKWKDFKGLRLHWKQRVRLNNVIWRAYYIEFRKKQPEKPKKPFCYFAVPDDDTTHQKIEGSIVEGMYWKRKMEGVCAQYKRWRIRSKHNLVTDKGGMVATCSSTSVSSMTGELKRKRKHTVPKETIESKLRSYEPPVKLQRSQTPKHTISDEFAWDFDDLDNVFTDDFLNSLSEPYMFPDPRDVYSGNNADIMQPGLLPLQPTIEDIMMSLGDDMPDSPPFHNDRDTMRTPTNDQPSISAQQIPQMRRSASSSASLHQMQVAQAQAQSISQISQPSQQLQHQIQIQQPVAARPHEFMASSIMMDYRLMPTRQSSAITSQMLMLSQSASTLSSQPQYATSTHYSTNNSFLPIRNTMTNQHHLGHTSQHSPWNKQQQSNFLVSLPHQSHVERILNNQPPLVPPPSRSNLLPTQNDPYLPQFLQSTQPTPQPQSHDPMMAPSRSWWLDSPLTASVQSPLSVATPLPLANQTGPQTPLGQLIGSADNGFLFGGNNTPGGFKMSGTTSGVPTLSQRLEQPPISRTSTIFGNVENKPERIFTSLTSQNTPTPSPLDISSLSRLRTSSLNESWKMSHIVEGSPTYQAFAASVTTKPSILESPSTSGDISGPASVPVQASQHPPKIITPPSASSKRKEQEAAMAPLVNRQQSCDVNLLNGKMAVKVEEKSGRHYLPTTPTELKEVTKEEPLLMSAPSSVKSMRRQAPDSTLHPEERKRILHLHAEQNRRSALKDGFDQLMDIIPDLYSGGVKPTNAVVLAKSADHIRRLQAEKWDKTQKIDEAKAKIEKLNQKITSLQSNLPQSSAPSSSSQVDSKTSLETFFDRYVKEGAKKNWRFWVVSYLAEKLKFF”, the “soluble on expression in E. coli” value is listed as “not soluble”.

“MSRHLTFHIITNVPYSNLNRDDSGTPKRVSLGGALRALHSSQSIKRGIRTKYELASLDTSIRSGKLVEEVVRVGLDLKPEVDEKLLRKGAAKIIGSLTKGESSEGESARSAWMSREEITTAAQTVIDGQEDSDFIQDNRTGSLAIAAFGRMFANAPKKNTEAALAVSPGVTTHAVTIETDYFSTVDDVREREHDSGATFLGVARYVNGTFYRTVSIDKEQLRESWSGFGQEESVDNLRELIKAIVYGAPRGKENSTAPYTLPSLVFAEEQHYRTAYSFETPVLVGKDGGFEFPTICELDRQFARARSFDKGNFGPLEVVSGTAVLEDEQFEGVQRSDLNGLIEAVVNWVTND”: the “soluble on expression in E. coli” value is given as “not soluble”.

With “MSRLRIYTESGELIKDITDPKEIAEELQKINVLFERWRANAPLKENASDEEIINAYKHEIDRLINKYGFQSYDVIAMTPEHPKKDELRQKFLKEHTHSDFEVRYFVYGDGVFYLHPNDKVYILHCTAGDLISVPPNTKHWFDMGENPNFKCIRLFTTPEGWVAEYTGSDIAEKFPKYEEVVNGLEHHHHHH”, the “soluble on expression in E. coli” value is recorded as “soluble”.

As to “MSRNDSLISIIVPVYNVEQYLSRCVDSLVNQTYHNIEIILVDDGSPDRSGEICDEYAKKDKRVKVIHQSNGGLSDARNTALDIAKGDYLMFVDSDDWIEKKTCEILNRLASDYKADTVIFGLNFVFDSGKVIRSKRGMAGLTDKNMCMKYLIHNVARGGIFNYACNKMFSSHLFEGLRFPVGRLAEDQDVIYKLIHRSQRIYVTEQPLYNYYQRDGSITAAQYYPRLIRDRHELWLKRLDFIREYYPDLENYQIAQILGAAYVGIVKLEGNKQNGELKKKLICFSNKYILKEKELSVLDRKIKLHYYCYPLFWLYVKLFIK”, the “soluble on expression in E. coli” value is “not soluble”.

Regarding “MSRPDQAKVTVAKGDIKAIAAALDMYKLDNFAYPSTQQGLEALVKKPTGNPQPKNWNKDGYLKKLPVDPWGNPYQYLAPGTKGPFDLYSLGADGKEGGSDNDADIGNWDN”, the “soluble on expression in E. coli” value was “soluble”.
